In the DeepSol protein solubility set:

experiment: soluble on expression in E. coli; label from the status in PepcDB or PDB records

Row | Sequence | soluble on expression in E. coli
1 | TTEEKKEEFLATVIDSVGDGVIVIDLDGRIALMNPAAEEISGISRRQAVGHRFALVFHREAVLREMVGKTATSGMTISDHENIVIRKLKQLTPVSATTFPLMLPHGETTGTILVLRD | not soluble
2 | SSQFWYSEETASRLAEELLQQAGEHGRIACLSAPSVYQKLKQLESVRSDGVSAVLLEFDRRFAAYGDEFVFYDYNNPLCLPEDLLPQSFDIVIADPPYLSEECLSKVTLTVKHLTKGKILLCTGAIMEEHAGKLLDLKMCSFLPRHNHNLANEFRCYVNYESRLLS | soluble
3 | IATGIPTGFKDLDDLTNGLRGGQMIIVAARPGVGKSTIALDFMRSASIKNNMASVIFSLEMSKSEIVMRLLSAETEIRLADMRGGKMDETAWEKMVQKLDKVAQAPLFIDDSANLTMMEIRSKARKLKQKHDLKMIVVDYLQLMSSGKRVESRQQEVSEFSRQLKLLAKELDVPLIAISQLNRGPESRTDKRPQLADL | not soluble
4 | MSLSKNDHRITHNKSDKDNLDDDFSLFRDEVKGVKKLRQDTILHAPNRNPKQKEIRRTEREASDNDFYFSDEFMPHLTDEGPTRYARSDVSKYEVKRLRRGVYVPDVFLDMHGMTQQEAKRELGAMIAYCLKENVHCACVQHGIGKHILKQNVPLWLAQHPDVLAFHQAPLEFGGDGALLVLLSIPEKEGHHHHHH | soluble
5 | MSLETLRIANRMLGYAAYEWRLSSLDGQKVMSSSGICLEVDTCLADERRYVSGENRPEMAIICSGIDVDQHVNKSVNAWLREAYNRGIAIGSLCTAAHILAQAGLLNGKRCAIHWENLPGFSEAFPQVEVYADLFEVDSNIYTCAGGTASLDMMLSLIGQDFGENLVNRVCEQQLTDRVREGHHHHHH | not soluble
6 | MGSDKIHHHHHHMQKNITSLSGLNWDDLKFFLEVARTRKVSSAARRLAVDYTTVSRRINSLETSLGTLLFEKSRNNGFIMTAEGQRLLGYAESIESTLHMACEQVSGSSVALSGHIRMGCTEGFGSFFITPQLSHFLDNYPSISVDILPLPHFISLSKREADIVIALERPEHGPYVCCKLCDYSLRLYATQEYLDNHAPIQRKADLSEHVFISYVDDLAFSSELLYLSNLLPNAQAQLRSTSVIAQYTAALQGRALAILPCFLAAQDPRLLPVLTEEVNITRQFWMYCREDLRKLKRITLLWDYIREVTELNKGFLLGENRAARFV | not soluble
7 | MAENKTINKEQNRTENNEIVIMNFSGIYKEQQFYRNHAEMQEDISWLEVQDLPGSNCYCDEEAKNRILDDIKNYTGNGIHFIDSGNYHYVSRLWLSKMEHPFRLLVFDNHTDMQLPAFGGLLSCGGWIAASLEEVPMLQEVILVGPDEEAYMQVEPEFQQKVQFLSREKLLAMTGEEKNTFFRNLRADLPMYISVDKDVLCTADASTTWSQGDMSLEKLQKFLEIVLQQQQILGMDICGECDPDACERNLLNDRANQKLLELWKKYFPQIRERRQDI | not soluble
8 | MKSDWSTDFFHQSQTPNPYPPIVQQQQQPPHTSSSFFNTNHQLNSHYSSPIHQPPTSLHQPIPMMQNQFKASPPQSDQETAPTTPGSGSGGQMKGERCVGCGSESAIRVHYGASSCHGCKAFFRRSVFEGRVYMCSADNHCDITNESRNRCRACRLRNCLEGGMNPKHVREERSKIERMPGNTCTVSAANGVSHSSSAASASPEHKFSFSLSTIAPSTSTGSFSSGSQPAPIESTNSSGSEAEVLDRKLIQENQLTLFMVALEKQTEQLTDDDVKDNDVMGAWSRDITLTFGLQHPQMVIKRLPLKYSCDRIMEAADLYLSWYRSFVFAADWAMGIPEFRVLPLADQTTLFKQNFMAFGWITFAYKCFELKQHLTGMPLGNGAYIPYNDEDQKKLPERWAQTYGVVCRKLIDLIVKAMIELQITEEEYCLIKTISLFQQDCILSEAGQGICSRMRDRLLDALSAHIEKRYPYHTTSQRMTRALKISLMLPSFSHIGQVESTLITQLTAADLHQLSGVPMEICTAQTTL | not soluble
9 | ISASEDMFEDEDLIPRQNVVITLTHHGYIKRLPISTYRSQKRGGRGIQGMGTNEDDFVQHLFTTNSHHTILFFTNKGKVYRLKGYEIPELGRTAKGIPIINLLQIEQDEYISTIIPIEEFTED | soluble
10 | KTEIHGDSTKATLEEGQQLTLTFISTKLDVAVGSCHSLVANFLDGFLKFQTGSNSAFDVVEVEEPAGPAVLTIGLGHKGRLAVVLDYTRLNAALGSAAYVVEDSGCSSSEEVSFQGVGSGATLVVTTLGESPTAVSA | soluble
11 | YSLYNPLKEAELQIEATRAEHERNQQAYNQLQATDISRQVQHDSDATRQALQAWQNSQTELARIDSQVQYLSAQLKQTDPLTGILTRAQNLCAAQGYSADICRQVAKAADTNDLTLFETELDTYIERVEMAESELDKARQGGDAQAVETARHAYLNALNRLSRQIHSLKTGVAGIRMPNLAELISRSANTAVSEQAAYNTGRQQAGRRIDRHLTDPQQQNIWLETGTQQTDYHSGTHRPYQQTTNYAHIGIQTGITDRLSVGTILTDERTNNRFDEGVSARNRSNGAHLFVKGENGALFAAADLGYSNSRTRFTDYDGAAVRRHAWDAGINTGIKIDTGINLRPYAGIRINRSNGNRYVLDGAEINSPAQIQTTWHAGIRLDKTVELGQAKLTPAFSSDYYHTRQNSGSALSVNDRTLLQQAAHGTLHTLQIDAGYKGWNAKLHAAYGKDSNTARHKQAGIKIGYNW | not soluble
12 | IVRACRFMAERQIGALIVIERQQNIEDLIEGCIYLDAYITAELIITIFYPLTPLHDGAVVIRDDRIAFASCVLPLSKNPELPKKYGTRHRAAVGITEMSDAVAIVVSEETGEISVAVEGNI | soluble
13 | SGPMDSRALRQGNRLLGNAEGCAALEITMSGPLLRFNTDAVIAVTGAHIPITLDGESCAMNTALLVRAGSTLALGTIAGAGVRSYLCVRGGLDVPDYLGSKSTFTLGQFGGHGGRALRAGDVLHIARLVDRTAGQKIADEQLDALQDVRQIRVIYGPHAAPEYFTESYIETFFATDWEVHFNSSRTGVRLIGPKPEWVRADGGEAGLHPSNIHDNPYAIGAVDFTGDMPVILGPDGPSLGGFVCPVTIIEADLWQLGQLKAGDKVRFYPVSVEACHAAMNSQGPLPQGPLNTSGSGL | not soluble
14 | MSLTIKLIAIDIDGTLLNEKNELAQATIDAVQAAKAQGIKVVLCTGRPLTGVQPYLDAMDIDGDDQYAITFNGSVAQTISGKVLTNHSLTYEDYIDLEAWARKVRAHFQIETPDYIYTANKDISAYTIAESYLVRMLIQYREVSETPRDLTISKAMFVDYPQVIEQVKANMPQDFKDRFSVVQSAPYFIEVMNRRASKGGTLSELVDQLGLTADDVMTLGDQGNDLTMIKYAGLGVAMGNAIDEVKEAAQAVTLTNAENGVAAAIRKYALNEGHHHHHH | soluble
15 | MTEVRRRGRPGQAEPVAQKGAQALERGIAILQYLEKSGGSSSVSDISLNLDLPLSTTFRLLKVLQAADFVYQDSQLGWWHIGLGVFNVGAAYIHNRDVLSVAGPFMRRLMLLSGETVNVAIRNGNEAVLIGQLECKSMVRMCAPLGSRLPLHASGAGKALLYPLAEEELMSIILQTGLQQFTPTTLVDMPTLLKDLEQARELGYTVDKEEHVVGLNCIASAIYDDVGSVVAAISISGPSSRLTEDRFVSQGELVRDTARDISTALGLKAHP | soluble
16 | MSRQAKDDFLRHYTVSDPRTHPKGYTEYKVTAQFISKKDPEDVKEVVVWKRYSDFRKLHGDLAYTHRNLFRRLEEFPAFPRAQVFGRFEASVIEERRKGAEDLLRFTVHIPALNNSPQLKEFFRGGEVTRPLEVSRDLHILPPPLIPTPPPDDPRLSQLLPAERRGLEELEVPVDPPPSSPAQEALDLLFNCESTEEASGSPARGPLTEAELALFDPFSKEEGAAPSPTHVAELATMEVESARLDQEPWEPGGQEEEEDGEGGPTPAYLSQATELITQALRDEKAGAYAAALQGYRDGVHVLLQGVPSDPLPARQEGVKKKAAEYLKRAEEILRLHLSQLPP | soluble
17 | MSLAAGYGVPLEQGEHRLGSSRVVVETAGDGLVRYRREVDGGGSVELLFDGTVDLQPVPMYPIFKPLYVTRFILLRIEPRIVVSPGSERTFYTLIPVDTAIYAFPGDEPTIVDVIPMDDKPSLVLYGPPESGVVARLAISSVSPRPEEPSLGRALARIAVKNISGTPVTLSRILLDSAPLKLYFERGTWRAYTQELAVEVERYRGVVMYRQPFREGTMPISDPPEVRPPRFFQRTDMMWGVEGHHHHHH | not soluble
